# T1: His6-ParA (M. xanthus, UniProt Q1CVJ3 1-283)
# T1 construct: DNA partitioning ATPase ParA of Myxococcus xanthus; Only soluble with ATP, which restricted the analyses to the dimeric form; also called ParA·ATP; purified ParA; source: E. coli Rosetta(DE3)pLysS with pAH17, purified (HisTrap HP) in the presence of magnesium-ATP
# T1 sequence (looked up): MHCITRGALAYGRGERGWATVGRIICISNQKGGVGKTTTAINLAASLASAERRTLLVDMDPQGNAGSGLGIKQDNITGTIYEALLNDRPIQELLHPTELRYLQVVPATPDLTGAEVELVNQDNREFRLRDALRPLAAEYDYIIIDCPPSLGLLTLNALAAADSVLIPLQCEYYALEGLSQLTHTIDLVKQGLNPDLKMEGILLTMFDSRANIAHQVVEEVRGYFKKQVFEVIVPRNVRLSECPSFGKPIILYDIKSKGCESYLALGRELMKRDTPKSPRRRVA
# B1: His6-PadC_(Δ1-281) (domain or fragment, M. xanthus, UniProt Q1D3H3 282-489, looked up)
# chain: PEPEQRLSGRVTTVLLPLEKLQDESAFKLRPEGDVSGLATDIARLGQLFPVDVRPAGEDRYQLVCGFRRVAALRFLKRDAVQARIHLRLSDEDALVMSLAEAIHATPVGPEVLEAKRDELEAQGRLSAAVRDMLEKALATEDTLAPEGVEEEIDADELAQEVAQRLGAINQDLSLLADVFAALDESRKAELLMQLRYSSELVTYLEGL
# modifications: biotinylated with EZ-Link NHS-PEG4-Biotin where it was loaded on the sensor
# notes: PadC (MXAN_4634) of Myxococcus xanthus lacking residues 1-281; holds the ParB-like nuclease (ParBC) domain; no cleavage of the tag is described; also called PadCΔN; N-terminally truncated variant of PadC; source: E. coli Rosetta(DE3)pLysS with pMO002, purified (HisTrap HP, MonoQ)
# What was measured:
# His6-PadC_(Δ1-281) = biological target: B1; assay: BLI; BLItz, streptavidin (SAX) sensors loaded with biotinylated BacPC, PadCΔN as analyte; 25 mM HEPES/KOH pH 7.6, 100 mM KCl, 10 mM MgSO4, 1 mM DTT, 10 µM BSA, 0.01% Tween; details: both partners purified
# His6-ParA = biological target: T1, His6-ParA; assay: BLI; BLItz, streptavidin (SAX) sensors loaded with biotinylated PadCΔN, ParA as analyte; BLItz binding buffer with 150 mM potassium glutamate, 5% glycerol and 10 mM ATP; details: both partners purified
Kd (His6-PadC_(Δ1-281)) [nM],Kd (His6-ParA) [nM],Binder
340,–,"His6-BacP_(Δ1-115) (domain or fragment, M. xanthus, UniProt Q1D3H2 116-240, looked up, biotinylated with EZ-Link NHS-PEG4-Biotin for loading on the sensor, bactofilin BacP of Myxococcus xanthus lacking residues 1-115 (the C-terminal extension); no cleavage of the tag is described; also called BacPC; C-terminal fragment of BacP; source: E. coli Rosetta(DE3)pLysS with pIB154, purified (HisTrap HP)) DVEPGRLPAERPAVVRPTAVTRPTATPARPTIPAARPMPPPPPSRPTPPPPPARPSAPPAVTRPSAPITRPGLGGLGSKPLPPPPPTRVERAEPQAGQAGSAEPPTPVLVGAGAKKKVVVKKKTR"
–,900,B1
